Measurements published in paper PMC9482650, “Quantitative fragmentomics allow affinity mapping of interactomes” (Nature Communications, 2022).

Experiments:
Assay in all cases: holdup assay
Parameters in all cases: key: below the threshold = too weak to quantify, mostly under pKd 3.1 to 4
APBA2_1, Q99767 = molecular target: T1, APBA2_1, Q99767
T1 sequence (Q99767 563-664, limits assumed, looked up): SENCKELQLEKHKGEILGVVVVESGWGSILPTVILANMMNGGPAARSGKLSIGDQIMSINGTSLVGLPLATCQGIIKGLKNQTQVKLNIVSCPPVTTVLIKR

APBA3_1, O96018 = molecular target: T2, APBA3_1, O96018
T2 sequence (O96018 389-490, limits assumed, looked up): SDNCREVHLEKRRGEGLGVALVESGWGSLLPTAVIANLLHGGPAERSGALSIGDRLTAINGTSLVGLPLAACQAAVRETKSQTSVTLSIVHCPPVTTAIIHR

DFNB31_2, Q9P202 = molecular target: T3, DFNB31_2, Q9P202
T3 sequence (Q9P202 274-371, limits assumed, looked up): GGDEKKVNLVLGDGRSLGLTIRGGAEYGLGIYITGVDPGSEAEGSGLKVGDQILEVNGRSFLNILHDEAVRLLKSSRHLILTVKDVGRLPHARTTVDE

DFNB31_3, Q9P202 = molecular target: T4, DFNB31_3, Q9P202
T4 sequence (Q9P202 811-907, limits assumed, looked up): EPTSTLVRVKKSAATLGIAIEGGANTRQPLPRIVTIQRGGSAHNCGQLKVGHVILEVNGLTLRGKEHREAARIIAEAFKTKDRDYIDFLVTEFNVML

DLG3_2, Q92796 = molecular target: T5, DLG3_2, Q92796
T5 sequence (Q92796 221-321, limits assumed, looked up): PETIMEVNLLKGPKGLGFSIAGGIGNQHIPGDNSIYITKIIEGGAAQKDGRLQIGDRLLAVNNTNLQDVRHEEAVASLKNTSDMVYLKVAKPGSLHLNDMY

DLG3_3, Q92796 = molecular target: T6, DLG3_3, Q92796
T6 sequence (Q92796 374-475, limits assumed, looked up): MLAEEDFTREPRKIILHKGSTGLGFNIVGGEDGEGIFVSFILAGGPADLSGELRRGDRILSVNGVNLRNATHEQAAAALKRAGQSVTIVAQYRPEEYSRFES

DLG4_3, P78352 = molecular target: DLG4_3, P78352
GRASP, Q7Z6J2 = molecular target: GRASP, Q7Z6J2
GRIP2_5, Q9C0E4 = molecular target: GRIP2_5, Q9C0E4
HTRA1, Q92743 = molecular target: HTRA1, Q92743
HTRA3, P83110 = molecular target: T7, HTRA3, P83110
T7 sequence (P83110 354-453, limits assumed, looked up): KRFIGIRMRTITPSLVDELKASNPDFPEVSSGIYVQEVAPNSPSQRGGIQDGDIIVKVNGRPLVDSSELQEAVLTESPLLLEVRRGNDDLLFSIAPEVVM

IL16_1, Q14005 = molecular target: IL16_1, Q14005
IL16_4, Q14005 = molecular target: IL16_4, Q14005
Inadl_2, Q8NI35 = molecular target: Inadl_2, Q8NI35
Inadl_6, Q8NI35 = molecular target: Inadl_6, Q8NI35
Inadl_9, Q8NI35 = molecular target: Inadl_9, Q8NI35
LAP2, Q96RT1 = molecular target: LAP2, Q96RT1
LNX1_2, Q8TBB1 = molecular target: LNX1_2, Q8TBB1
MAGI2_4, Q86UL8 = molecular target: MAGI2_4, Q86UL8
MAST1, Q9Y2H9 = molecular target: MAST1, Q9Y2H9
MPP6, Q9NZW5 = molecular target: T8, MPP6, Q9NZW5
T8 sequence (Q9NZW5 125-219, limits assumed, looked up): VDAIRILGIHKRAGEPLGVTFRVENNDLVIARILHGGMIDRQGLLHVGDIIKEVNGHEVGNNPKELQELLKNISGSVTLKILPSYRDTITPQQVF

NHERF2_2, Q15599 = molecular target: NHERF2_2, Q15599
PARD3B_1, Q8TEW8 = molecular target: T9, PARD3B_1, Q8TEW8
T9 sequence (Q8TEW8 196-299, limits assumed, looked up): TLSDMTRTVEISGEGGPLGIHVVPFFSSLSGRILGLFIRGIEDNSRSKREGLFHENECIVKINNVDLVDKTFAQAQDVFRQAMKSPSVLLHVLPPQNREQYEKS

SCRIB_1, Q14160 = molecular target: SCRIB_1, Q14160
SNTA1, Q13424 = molecular target: T10, SNTA1, Q13424
T10 sequence (Q13424 82-180, limits assumed, looked up): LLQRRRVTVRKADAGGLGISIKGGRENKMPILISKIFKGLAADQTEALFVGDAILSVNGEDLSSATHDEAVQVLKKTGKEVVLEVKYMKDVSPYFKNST

SNTG1, Q9NSN8 = molecular target: T11, SNTG1, Q9NSN8
T11 sequence (Q9NSN8 52-150, limits assumed, looked up): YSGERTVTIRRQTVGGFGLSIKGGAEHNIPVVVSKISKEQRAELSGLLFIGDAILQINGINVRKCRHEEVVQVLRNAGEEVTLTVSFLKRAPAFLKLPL

[1] = plain residues with an end cap or a label only (N-terminal biotin on a linker: (peg)3)
[2] = plain residues with an end cap or a label only (N-terminal biotin on a linker: ado-ado)

Measured: pKd

LAP2, Q96RT1, sequence (Q96RT1 other isoform, or with tags, fused parts or gaps): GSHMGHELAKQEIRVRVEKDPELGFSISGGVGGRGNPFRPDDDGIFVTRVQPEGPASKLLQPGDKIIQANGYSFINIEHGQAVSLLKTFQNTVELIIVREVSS
MAST1, Q9Y2H9, sequence (Q9Y2H9 962-1065): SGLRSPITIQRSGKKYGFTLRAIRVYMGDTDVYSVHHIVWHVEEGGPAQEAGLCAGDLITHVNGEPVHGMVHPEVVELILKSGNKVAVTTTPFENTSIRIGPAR
MAGI2_4, Q86UL8, sequence (Q86UL8 772-865): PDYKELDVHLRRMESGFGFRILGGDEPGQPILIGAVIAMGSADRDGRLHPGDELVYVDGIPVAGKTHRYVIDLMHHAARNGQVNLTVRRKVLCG
IL16_4, Q14005, sequence (Q14005 1229-1329): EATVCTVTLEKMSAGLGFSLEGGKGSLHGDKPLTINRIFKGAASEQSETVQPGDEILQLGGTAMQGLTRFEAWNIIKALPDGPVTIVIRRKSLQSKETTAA
DLG4_3, P78352, sequence (P78352 306-403): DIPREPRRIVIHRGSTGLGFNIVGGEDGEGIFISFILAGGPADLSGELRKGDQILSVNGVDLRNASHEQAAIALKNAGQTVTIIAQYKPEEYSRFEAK
LNX1_2, Q8TBB1, sequence (Q8TBB1 371-470): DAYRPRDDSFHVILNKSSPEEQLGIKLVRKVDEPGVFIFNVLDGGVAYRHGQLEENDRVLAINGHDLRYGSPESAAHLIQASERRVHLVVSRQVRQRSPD
HTRA1, Q92743, sequence (Q92743 360-477): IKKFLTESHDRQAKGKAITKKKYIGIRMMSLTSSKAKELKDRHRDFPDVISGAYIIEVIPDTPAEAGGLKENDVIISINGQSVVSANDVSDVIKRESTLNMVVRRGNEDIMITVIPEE
GRASP, Q7Z6J2, sequence (Q7Z6J2 96-193): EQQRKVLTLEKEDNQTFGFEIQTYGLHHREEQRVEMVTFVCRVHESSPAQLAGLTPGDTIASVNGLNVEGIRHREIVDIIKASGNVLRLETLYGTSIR
Inadl_6, Q8NI35, sequence (Q8NI35 1058-1167): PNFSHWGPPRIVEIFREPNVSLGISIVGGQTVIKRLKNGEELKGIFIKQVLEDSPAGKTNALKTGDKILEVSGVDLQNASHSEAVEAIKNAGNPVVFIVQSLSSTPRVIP
Inadl_2, Q8NI35, sequence (Q8NI35 238-335): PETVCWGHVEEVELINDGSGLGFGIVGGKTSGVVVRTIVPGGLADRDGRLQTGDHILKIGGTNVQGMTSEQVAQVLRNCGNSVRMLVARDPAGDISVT
SCRIB_1, Q14160, sequence (Q14160 718-814): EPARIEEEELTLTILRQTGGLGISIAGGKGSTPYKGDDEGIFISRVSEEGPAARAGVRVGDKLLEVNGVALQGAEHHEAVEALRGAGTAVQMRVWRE
GRIP2_5, Q9C0E4, sequence (Q9C0E4 544-642): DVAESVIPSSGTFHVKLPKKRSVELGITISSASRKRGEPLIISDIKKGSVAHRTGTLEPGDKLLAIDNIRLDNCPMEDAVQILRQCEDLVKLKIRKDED
Inadl_9, Q8NI35, sequence (Q8NI35 1530-1615): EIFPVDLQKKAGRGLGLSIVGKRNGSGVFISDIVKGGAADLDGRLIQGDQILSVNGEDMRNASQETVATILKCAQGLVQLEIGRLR
NHERF2_2, Q15599, sequence (Q15599 142-238): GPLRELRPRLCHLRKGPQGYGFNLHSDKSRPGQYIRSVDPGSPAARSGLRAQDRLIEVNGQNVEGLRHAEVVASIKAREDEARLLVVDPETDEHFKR
IL16_1, Q14005, sequence (Q14005 210-306): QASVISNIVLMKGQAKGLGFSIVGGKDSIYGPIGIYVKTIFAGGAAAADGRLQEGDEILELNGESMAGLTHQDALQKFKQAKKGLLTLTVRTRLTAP

RRRRSQSRESQC [HBV-HBc, P03193]
4.58: DLG4_3, P78352; [1]
4.56: DLG3_2, Q92796; [1]
4.48: SCRIB_1, Q14160; [1]
below the threshold: APBA2_1, Q99767; [1] | APBA3_1, O96018; [1] | DFNB31_2, Q9P202; [1] | DFNB31_3, Q9P202; [1] | GRASP, Q7Z6J2; [1] | GRIP2_5, Q9C0E4; [1] | HTRA1, Q92743; [1] | IL16_1, Q14005; [1] | Inadl_2, Q8NI35; [1] | Inadl_6, Q8NI35; [1] | Inadl_9, Q8NI35; [1] | LAP2, Q96RT1; [1] | LNX1_2, Q8TBB1; [1] | MAGI2_4, Q86UL8; [1] | MPP6, Q9NZW5; [1] | NHERF2_2, Q15599; [1] | PARD3B_1, Q8TEW8; [1] | SNTG1, Q9NSN8; [1]
3.69: DLG3_3, Q92796; [1]
3.58: HTRA3, P83110; [1]
4.44: SNTA1, Q13424; [1]
3.68: IL16_4, Q14005; [1]
3.92: MAST1, Q9Y2H9; [1]

LKDDELKTKL [SLCO1A2, P46721]
3.84: PARD3B_1, Q8TEW8; [2]
4.37: GRASP, Q7Z6J2; [2]
3.61: IL16_4, Q14005; [2]
below the threshold: APBA2_1, Q99767; [2] | APBA3_1, O96018; [2] | DFNB31_2, Q9P202; [2] | DFNB31_3, Q9P202; [2] | DLG3_2, Q92796; [2] | DLG3_3, Q92796; [2] | DLG4_3, P78352; [2] | GRIP2_5, Q9C0E4; [2] | HTRA1, Q92743; [2] | HTRA3, P83110; [2] | IL16_1, Q14005; [2] | Inadl_2, Q8NI35; [2] | Inadl_6, Q8NI35; [2] | Inadl_9, Q8NI35; [2] | LAP2, Q96RT1; [2] | LNX1_2, Q8TBB1; [2] | MAGI2_4, Q86UL8; [2] | MPP6, Q9NZW5; [2] | SCRIB_1, Q14160; [2] | SNTA1, Q13424; [2] | SNTG1, Q9NSN8; [2]
4.67: NHERF2_2, Q15599; [2]
4.64: MAST1, Q9Y2H9; [2]

AEASVACSLC [PTGIR, P43119]
below the threshold: APBA2_1, Q99767; [2] | APBA3_1, O96018; [2] | DFNB31_2, Q9P202; [2] | DLG3_3, Q92796; [2] | DLG4_3, P78352; [2] | GRIP2_5, Q9C0E4; [2] | IL16_1, Q14005; [2] | IL16_4, Q14005; [2] | Inadl_2, Q8NI35; [2] | Inadl_6, Q8NI35; [2] | Inadl_9, Q8NI35; [2] | LAP2, Q96RT1; [2] | MAST1, Q9Y2H9; [2] | MPP6, Q9NZW5; [2] | NHERF2_2, Q15599; [2] | PARD3B_1, Q8TEW8; [2] | SCRIB_1, Q14160; [2] | SNTA1, Q13424; [2] | SNTG1, Q9NSN8; [2]
4.15: HTRA3, P83110; [2]
3.72: MAGI2_4, Q86UL8; [2]
3.93: HTRA1, Q92743; [2]
3.75: DFNB31_3, Q9P202; [2]
4.43: GRASP, Q7Z6J2; [2]
3.68: LNX1_2, Q8TBB1; [2]
3.69: DLG3_2, Q92796; [2]

NTANRRTTPV [CACNG2, Q9Y698]
below the threshold: APBA2_1, Q99767; [2] | APBA3_1, O96018; [2] | DFNB31_2, Q9P202; [2] | DFNB31_3, Q9P202; [2] | GRIP2_5, Q9C0E4; [2] | HTRA1, Q92743; [2] | HTRA3, P83110; [2] | IL16_1, Q14005; [2] | IL16_4, Q14005; [2] | Inadl_2, Q8NI35; [2] | Inadl_6, Q8NI35; [2] | Inadl_9, Q8NI35; [2] | LAP2, Q96RT1; [2] | LNX1_2, Q8TBB1; [2] | MAGI2_4, Q86UL8; [2] | MAST1, Q9Y2H9; [2] | MPP6, Q9NZW5; [2] | NHERF2_2, Q15599; [2] | PARD3B_1, Q8TEW8; [2] | SNTG1, Q9NSN8; [2]
4.44: DLG3_2, Q92796; [2]
4.18: GRASP, Q7Z6J2; [2]
4.1: SNTA1, Q13424; [2]
3.49: SCRIB_1, Q14160; [2]
4.69: DLG3_3, Q92796; [2] | DLG4_3, P78352; [2]
